What is called stoichiometry N is the number of molecules, sites or subunits per partner or assembly. The EC50 is the concentration at which the effect is half-maximal.

The record followed here is paper PMC12193154, “Effect of Mutations in the C-Terminal 22–24 Domains of Filamin C Associated with Cardio- and Myopathies on Its Interaction with Small Heat Shock Protein HspB7” (International Journal of Molecular Sciences, 2025).

Series [1] deals with the molecule itself. Kind of series: cross-linking; isolated proteins or equimolar mixture, 30 min at 30 °C in 25 mM HEPES/NaOH pH 7.4, 100 mM NaCl, 2 mM DTT, then 0.0125% glutaraldehyde 30 min at 30 °C; SDS gel and anti-HspB7 immunoblot.
Series [2] concerns the molecule itself. Kind of series: SEC; isolated FLNC fragments, 0.1 mg in 100 µL, Superdex 200 10/300, 0.5 mL/min, 50 mM Na-phosphate pH 7.4, 150 mM NaCl, 0.1 mM EDTA, 0.1 mM PMSF, 2 mM DTT, room temperature; apparent molecular weights from column calibration. For orientation: Size exclusion chromatography separates by hydrodynamic size, large species first.
In series [3] the target is T1, small heat shock protein HspB7 (full-size) (UniProt Q9UBY9 1-170).
T1 construct: small heat shock protein HspB7, full-size; also called full-size HspB7; full-length HspB7; source: recombinant, expressed and purified as described earlier [25,34]
As to the kind of experiment: native gel or EMSA; fixed HspB7 (25 or 30 µM) or AcdB7 (35 µM) in 20 mM Tris-acetate pH 7.6, 100 mM NaCl titrated with 0-120 µM FLNC fragment, 30 min at 30 °C; native 12.5% polyacrylamide gel, Tris-glycine pH 8.6; band intensities, semi quantitative, apparent affinity. The settings on record: both partners purified. (In general: Mobility shift assays separate free from complexed probe on a gel.)

For series [4], the target named is T2, α-crystallin domain of HspB7 (AcdB7) containing residues 77-155 (UniProt Q9UBY9 77-155).
T2 construct: small heat shock protein HspB7, α-crystallin domain, residues 77-155; source: recombinant, expressed and purified as described earlier [25,34]
Described as above. The conditions noted are these: both partners purified.

T1 sequence (Q9UBY9 whole entry): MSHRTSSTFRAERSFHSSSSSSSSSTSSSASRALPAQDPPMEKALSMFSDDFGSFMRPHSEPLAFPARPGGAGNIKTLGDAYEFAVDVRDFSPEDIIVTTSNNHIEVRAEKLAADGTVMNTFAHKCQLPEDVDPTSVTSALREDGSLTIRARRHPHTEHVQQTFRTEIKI
T2 sequence (Q9UBY9 77-155): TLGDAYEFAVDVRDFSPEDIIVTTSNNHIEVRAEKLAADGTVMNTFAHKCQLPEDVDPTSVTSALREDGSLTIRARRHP

B1: ΔPGL mutant (p.P2643_L2645del) of the FLNC fragment containing immunoglobulin-like domains 22-24 (domain or fragment, human, UniProt Q14315 2403-2725, looked up)
chain: SLSDDARRLTVTSLQETGLKVNQPASFAVQLNGARGVIDARVHTPSGAVEECYVSELDSDKHTIRFIPHENGVHSIDVKFNGAHIPGSPFKIRVGEQSQAGDPGLVSAYGPGLEGGTTGVSSEFIVNTLNAGSGALSVTIDGPSKVQLDCRECPEGHVVTYTPMAPGNYLIAIKYGGPQHIVGSPFKAKVTGPRLSGGHSLHETSTVLVETVTKSSSSRGSSYSSIPKFSSDASKVVTRGSQAFVGQKNSFTVDCSKAGTNMMMVGVHGPKTPCEEVYVKHMGNRVYNVTYTVKEKGDYILIVKWGDESVPGSPFKVKVP
notes: human filamin C (FLNC), Uniprot Q14315, residues 2403-2725, with deletion of the tripeptide 2643-PGL-2645 (mutation associated with restrictive cardiomyopathy); also called ΔPGL FLNC; c.7927_7935del; source: recombinant, expressed and purified as described earlier [23]; (ion-exchange and size-exclusion chromatography)
On to B1, for which the “stoichiometry N” value in series [1] came to 2.

B2: EN/D mutant (p.Glu2472_Asn2473delinsAsp) of the FLNC fragment containing immunoglobulin-like domains 22-24 (domain or fragment, human, UniProt Q14315 2403-2725, looked up)
chain: SLSDDARRLTVTSLQETGLKVNQPASFAVQLNGARGVIDARVHTPSGAVEECYVSELDSDKHTIRFIPHDGVHSIDVKFNGAHIPGSPFKIRVGEQSQAGDPGLVSAYGPGLEGGTTGVSSEFIVNTLNAGSGALSVTIDGPSKVQLDCRECPEGHVVTYTPMAPGNYLIAIKYGGPQHIVGSPFKAKVTGPRLSGGHSLHETSTVLVETVTKSSSSRGSSYSSIPKFSSDASKVVTRGPGLSQAFVGQKNSFTVDCSKAGTNMMMVGVHGPKTPCEEVYVKHMGNRVYNVTYTVKEKGDYILIVKWGDESVPGSPFKVKVP
notes: human filamin C (FLNC), Uniprot Q14315, residues 2403-2725, with Glu2472 and Asn2473 replaced by Asp (mutation associated with restrictive cardiomyopathy); also called c.7416_7418delGAA; source: recombinant, expressed and purified as described earlier [23]; (ion-exchange and size-exclusion chromatography)
As for B2, the “stoichiometry N” value is 2 in series [2], 2 HspB7/FLNC in series [3] and 1 in series [4]. For the same molecule, the EC50 in series [3] was ~10 µM; in series [4] it was ~20 µM.

B3: wild-type (WT) C-terminal fragment of human filamin C (FLNC) containing immunoglobulin-like domains 22-24 (domain or fragment, UniProt Q14315 2403-2725, looked up)
chain: SLSDDARRLTVTSLQETGLKVNQPASFAVQLNGARGVIDARVHTPSGAVEECYVSELDSDKHTIRFIPHENGVHSIDVKFNGAHIPGSPFKIRVGEQSQAGDPGLVSAYGPGLEGGTTGVSSEFIVNTLNAGSGALSVTIDGPSKVQLDCRECPEGHVVTYTPMAPGNYLIAIKYGGPQHIVGSPFKAKVTGPRLSGGHSLHETSTVLVETVTKSSSSRGSSYSSIPKFSSDASKVVTRGPGLSQAFVGQKNSFTVDCSKAGTNMMMVGVHGPKTPCEEVYVKHMGNRVYNVTYTVKEKGDYILIVKWGDESVPGSPFKVKVP
notes: human filamin C (FLNC), Uniprot Q14315, immunoglobulin-like domains 22-24, amino acid residues 2403-2725; Dimer by SEC and cross-linking; also called WT FLNC; WT FLNC fragment; source: recombinant, expressed and purified as described earlier [23]; (ion-exchange and size-exclusion chromatography)
For B3, the “stoichiometry N” value in series [2] turned out to be 2; in series [3], 2 HspB7/FLNC; in series [4] it was 1. The EC50 in series [3] was ~10 µM; in series [4] it was ~20 µM.
